Experimental data reported in PMC9523049.

Molecular target: Mec1-Ddc2 heterodimer (yeast (endogenous in cultured yeast cells)) (UniProt P38111)
Experiment: cryo-EM structure; Mec1-Ddc2 complex endogenously purified from yeast cells treated with HU (HU-Dimer1, HU-Dimer2) or MMS (MMS-Dimer)

stoichiometry N: 2
Substance: Mec1-Ddc2 heterodimer, P38111 1-2368; Q04377 1-747
